According to PMC9609667, “Serendipitous Discovery of a Competitive Inhibitor of FraB, a Salmonella Deglycase and Drug Target” (Pathogens, 2022):
Values belong to the molecule of their own block, whether it stands above or below them.

Columns and labels:
[1] = target: FraB, a Salmonella deglycase (Salmonella); assay: native MS; 3 uM FraB or FrlB mixed with 150, 300 or 450 uM 2-deoxy-6-P-GA; 200 mM ammonium acetate (pH adjusted to 7.4 for FraB); mixed at 25 °C, incubated 30 min at room temperature; nano-ESI, Q Exactive UHMR Orbitrap
FrlB = target: T1, FrlB (Salmonella enterica, UniProt Q8ZJX7); assay: native mass spectrometry (dimer with one or two ligands); about […] inhibition at […] in coupled assay; assay type: binding
T1 construct: gene STM4540; recombinant FrlB, His6 tag removed
T1 sequence (Q8ZJX7 1-343): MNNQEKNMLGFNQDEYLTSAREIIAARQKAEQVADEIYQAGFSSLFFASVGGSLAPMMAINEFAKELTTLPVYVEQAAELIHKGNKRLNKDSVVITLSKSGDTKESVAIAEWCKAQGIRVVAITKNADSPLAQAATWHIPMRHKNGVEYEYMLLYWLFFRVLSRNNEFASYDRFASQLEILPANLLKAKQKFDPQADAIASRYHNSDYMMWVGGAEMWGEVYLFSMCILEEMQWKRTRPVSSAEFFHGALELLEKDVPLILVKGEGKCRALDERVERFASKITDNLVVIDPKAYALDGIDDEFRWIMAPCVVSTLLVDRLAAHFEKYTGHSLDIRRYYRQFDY

FraB = target: T2, FraB (Salmonella enterica, UniProt Q8ZLD0); assay: G6PDH-coupled deglycase assay, Michaelis-Menten analysis; binding confirmed by native MS; assay type: biochemical
T2 construct: gene STM3601; 325-aa construct, N-terminal His6-tag

[2] = target: FrlB deglycase (Salmonella) (Salmonella); assay: native MS; 3 uM FraB or FrlB mixed with 150, 300 or 450 uM 2-deoxy-6-P-GA; 200 mM ammonium acetate (pH adjusted to 7.4 for FraB); mixed at 25 °C, incubated 30 min at room temperature; nano-ESI, Q Exactive UHMR Orbitrap

stoichiometry N [1]: 2
Molecule: FraB, a Salmonella deglycase (enzyme)

Molecule: O=C(O)C[C@@H](O)[C@H](O)[C@H](O)COP(=O)(O)O [2-deoxy-6-P-GA, 2-deoxy-6-phosphogluconate]
native mass spectrometry (dimer with one or two ligands); about 50% inhibition a (FrlB): These results confirm the direct interaction of 2-deoxy-6-P-GA to FraB and FrlB. | Ki (FraB): 3.3 µM

stoichiometry N [2]: 2
Molecule: FrlB deglycase (Salmonella) (enzyme)
